Experimental data: the DeepSol protein solubility set

Test: soluble on expression in E. coli; label from the status in PepcDB or PDB records

Sequence | soluble on expression in E. coli
MGSDKIHHHHHHMILGIDVGGTSVKFGLVTPEGEIQNATRFMTADWVNGIGFVESMKLEIGNFLKQYPIVKGVGIGWPGLVSLDRTKVILLPNIPSVVNVPIVEILRSEFPHIHFKIENDAKCAALGEYYFGENKRMQTFILLALGTGVGSGVMMNGKLFIGGRGNGTEVGHMLTTRGKSLENQVGINHLIAYTHEQLALDVAKKSSLHTIAELSPKVIADHAAQGDALALAVWADIGTIIGESLVNIVRVMDLNNILLGGGISGAFDYFVPNLKKAMLEHLPTYYTDDMYIGKATLENDAGLLGAAGLIMEAI | not soluble
MMKEASEPLASVTSINKQDSKVQDGEIRKEKIGTITPSKQHSSVHFFPKIMDSDSTTLIPLSRSFSQEMPIGFYQITSTQNSSTLSSRGQLASKSTILSCSHKDSSLGKQSTSSMVPRRQPQSSSDVDTYTFGNGEDYFLSLFGESKKLTAHTPQAENVSEHLSVILEEVGQFTSSSLGEIKIAEVNIKGLFVRLVNSSNEKEVEIGNHILQQNVNGHAVSLYQFPDNITLQANSTVTVWAAASEAKPQPPTDFVWEEQSKFRSSPDCTTILCKPNGEAIAWYTPIHWKQAWEKLETDIEFERCSVVVPSMRNHMFGWITASVSSTNEEKEEPIQKTPSQVYPVLYREKEIPPTVLPNKSPWCRNPNTSPHPYSSLIDSHDSDISESSLDTQLKPQPTKPKPDPGTKKKKAKS | soluble
MSLNDTVTVRISFAVNIATRVIAEVPLFSLTKPSHQELLQKIAEQSRSPFNYPDVGASLCEFPSGYEHHHHRVRLGRGQEVFDRAKEALGNWRQFDVGWVEAIPSDTSITVGNTIAIRVRIFGVWAMAFDRIVDVYGEQDGECRRFGFSVGTLTEHPEQGEERFSIEIDREDHVDYEVAAFFRPNTLAAKMAWPVLHRRFNRFRNQSAEAMQLACKLGPSSEGHHHHHH | not soluble
MAHHHHHHMDTNDYENLRFYNYIPVNKELKKSCIPCPDTEDYEAKLNKEFDEELTKVFQGNILDQINAKDINADLKRDLKKKLDILSKKTDKAVVQLIKQKINENKNKENITNTNDDEKEKETMTLNFDKKGDKNFGHVLYKTLDKLDVMDDESD | soluble
RQANELPGAPSQEEAVIAFGKFKLNLGTREMFREDEPMPLTSGEFAVLKALVSHPREPLSRDKLMNLARGREYSAMERSIDVQISRLRRMVEEDPAHPRYIQTVWGLGYVFVPDGSKA | soluble
MPDLFFVTLYDRQDLLKESMTFLNSEWPRSDGSREHSQKKSCRQSPPMSFLLLNKENDEILGHSRITHLPNRDHALWIESVMIKKDQRGLGLGKFLMKSTEKWMTEKGFNEAYLSTDDQCRFYESLGYEKCDPIVHSTTATCIFPAMNHFQNAAASNPSFLSKIAQPSASSTVSASAPPPPPPPPMAPKMVTRSTSPIVDVNTIDHQYMRKWLKPTE | soluble
MGSDKIHHHHHHMTVKSSTSSLHDRSSTSTSLMPGFADPVFDAQAVFRASLLATAYPGRVVPVDRALASPRPFSSATAALCLTLMDFETLAWLDRQAASGEAVAWLRFHCGLPVTDDPMKARFAVVTDALTMPRLVEFHPGDVEYPDRSMTLIIQVPSFNEGPATTWTGPGIKTSARVSIGGLPFWYWSDWEMNRELYPRGIDVIFTNGNALVGLPRTIAVEA | not soluble
AHHHHHHGSKKRLPASRVYIKDILEGYFVKSEGDFEPNYLITKDARKIYRAKIVGTVIREPLIAEDETYGKFQIDDGTGVIWVLGFRDDTKFAKLVKKGDLVQVIGKIAEWRDDKQILVEGVAKVHPNMWILHRYETLKEKIEHARKAKIAFEIYNTYGITAKSKVIAKNKGVPEELLETIDELYGIIMEEKAMEEPVEELIEEEITEEGKEENEILEKVKQEILEILRSKKIAVSRKYILKKLGEKYDEETIEDAIAELLADGEIYEPETGYYKLL | not soluble
